Source: patent publication US9365599B2, “N3S1 chelator-folate derivatives, preparation method thereof and composition for diagnosis or treatment of cancer containing the same as an active ingredient” (KOREA ATOMIC ENERGY RESEARCH INSTITUTE, priority 2012, dated 2016)

Experiments:
[1] = in vivo; design: species or system mice; settings: female, nude, mouse, iv, 370 kBq, total radioactivity
Protocol: (§1) The stock solution of the ^99mTc-labeled PKCK-fol-OH used in the animal studies was prepared for 10^−8 mol/ml with an activity of 370 MBq. Solutions for injection were prepared by the dilution of the stock solution to obtain a desired volumetric activity of 3.7 MBq/ml. The biodistribution experiments for the ^99mTc-labeled PKCK-fol-OH were performed with KB-bearing female nude mice (provided by OrientBio, Republic of Korea). […] After tumor was allowed to grow for 2-3 weeks, the mice were administered 370 kBq (10 uCi)/100 μl intravenously. At 30 min, 1 hr, 3 hr and 24 hr, the animals were sacrificed.
(§2) Table 1 below lists biodistribution results measured at 30 min, 1 hr, 3 hr and 24 hr after injection.

[2] = tested on: KB tumor xenograft; assay: in vivo; design: species or system mice; settings: mouse, iv
Protocol: as §1, §2

[3] = tested on: FR-positive KB tumor cells; assay: Time-dependent cell uptake (membrane bound and internalized fraction) in FR-positive KB cells; type: cell-based, human; settings: 37° C., 10-180 min
Protocol: FR-positive KB tumor cells (human oral epidermoid carcinoma) which overexpress FR were grown in T-flask until 80%-90% confluence at 37° C. and 5% CO2 with folid-acid free (deficient) RPMI 1640 medium (FFRPMI) containing 10% heat-inactivated fetal bovine serum (FBS). […] Cells were rinsed twice with ice-cold PBS and pre-incubated with 850 μl of fresh FFRPMI without FBS at 37° C. for 30 min. […] After incubation, the well plates were washed twice with ice-cold PBS.
After that, the cells were washed with an acid wash buffer (50 mM glysine-HCL buffer, pH 2.4), to remove membrane bound radioligand, and the supernatant was collected to measure the membrane bound fraction of radioactivity. Cells were lysed with 1N NaOH, transferred and measured the internalised fraction of radioactivity with γ-counter. Counted radioactivity in membrane bound fraction and internalized fraction could be ascribed to the sum of cell uptake. The cell uptake data was expressed as % cell uptake (cell uptake/total added activity). Each data represents a result of the […] of triplicate wells. The affinity of PKCK-fol was determined using competitive binding assay. ^99mTc-PKC-fol was used as radioligand in this assay. Cells were harvested with typsin and washed with PBS buffer, and 8×10^5 cells were seeded in 12-well plates. […] After that, the cells were collected to measure the radioactivity with γ-counter. […]

[4] = molecular target: T1, folate-receptor (FR) (Homo sapiens, UniProt P15328); assay: Competitive binding assay on FR-positive KB cells with 99mTc-labeled folate radioligand
T1 construct: FR-positive KB tumor cells (human oral epidermoid carcinoma) which overexpress FR; endogenous in cells; host or cells: KB cells (human oral epidermoid carcinoma)
T1 sequence (P15328 25-234): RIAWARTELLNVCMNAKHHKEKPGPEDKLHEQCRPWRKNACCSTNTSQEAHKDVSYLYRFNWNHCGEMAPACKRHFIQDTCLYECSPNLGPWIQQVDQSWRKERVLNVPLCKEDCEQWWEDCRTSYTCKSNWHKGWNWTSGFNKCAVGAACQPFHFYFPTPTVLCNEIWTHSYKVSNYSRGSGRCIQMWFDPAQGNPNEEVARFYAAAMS
Protocol: After that, the cells were washed with an acid wash buffer (50 mM glysine-HCL buffer, pH 2.4), to remove membrane bound radioligand, and the supernatant was collected to measure the membrane bound fraction of radioactivity. Cells were lysed with 1N NaOH, transferred and measured the internalised fraction of radioactivity with γ-counter. Counted radioactivity in membrane bound fraction and internalized fraction could be ascribed to the sum of cell uptake. The cell uptake data was expressed as % cell uptake (cell uptake/total added activity). […] Cells were harvested with typsin and washed with PBS buffer, and 8×10^5 cells were seeded in 12-well plates. […] After that, the cells were collected to measure the radioactivity with γ-counter.

Compound: NCCCC[C@H](NC(=O)[C@@H]1CCCN1)C(=O)N[C@@H](CS)C(=O)NCCCC[C@H](NC(=O)CC[C@H](NC(=O)c1ccc(NCc2cnc3nc(N)[nH]c(=O)c3n2)cc1)C(=O)O)C(=O)O (99mTc complex, metal not drawn) [Example 10]
- tissue uptake at 0.5 h ([1]; Blood uptake): 0.64 ± 0.26 %ID/g
- tissue uptake at 1 h ([1]; Blood uptake): 0.36 ± 0.06 %ID/g
- tissue uptake at 3 h ([1]; Blood uptake): 0.18 ± 0.05 %ID/g
- tissue uptake at 24 h ([1]; Blood uptake): 0.06 ± 0.02 %ID/g
- tissue uptake at 0.5 h ([1]; Heart uptake): 2.25 ± 0.47 %ID/g
- tissue uptake at 1 h ([1]; Heart uptake): 1.73 ± 0.27 %ID/g
- tissue uptake at 3 h ([1]; Heart uptake): 1.03 ± 0.32 %ID/g
- tissue uptake at 24 h ([1]; Heart uptake): 0.1 ± 0.06 %ID/g
- tissue uptake at 0.5 h ([1]; Kidney uptake): 76.5 ± 5.04 %ID/g
- tissue uptake at 1 h ([1]; Kidney uptake): 77.2 ± 5.43 %ID/g
- tissue uptake at 3 h ([1]; Kidney uptake): 41.5 ± 12.1 %ID/g
- tissue uptake at 24 h ([1]; Kidney uptake): 7.49 ± 1.9 %ID/g
- tissue uptake at 0.5 h ([1]; Lg Int uptake): 2.43 ± 1.38 %ID/g
- tissue uptake at 1 h ([1]; Lg Int uptake): 3.43 ± 0.73 %ID/g
- tissue uptake at 3 h ([1]; Lg Int uptake): 1.48 ± 0.64 %ID/g
- tissue uptake at 24 h ([1]; Lg Int uptake): 1.38 ± 0.86 %ID/g
- tissue uptake at 0.5 h ([1]; Liver uptake): 7.21 ± 1.58 %ID/g
- tissue uptake at 1 h ([1]; Liver uptake): 5.42 ± 1.85 %ID/g
- tissue uptake at 3 h ([1]; Liver uptake): 2.83 ± 0.6 %ID/g
- tissue uptake at 24 h ([1]; Liver uptake): 1.09 ± 0.07 %ID/g
- tissue uptake at 0.5 h ([1]; Lung uptake): 1.7 ± 0.35 %ID/g
- tissue uptake at 1 h ([1]; Lung uptake): 1.45 ± 0.33 %ID/g
- tissue uptake at 3 h ([1]; Lung uptake): 0.63 ± 0.26 %ID/g
- tissue uptake at 24 h ([1]; Lung uptake): 0.12 ± 0.06 %ID/g
- tissue uptake at 0.5 h ([1]; Sm Int uptake): 0.93 ± 0.54 %ID/g
- tissue uptake at 1 h ([1]; Sm Int uptake): 0.43 ± 0.05 %ID/g
- tissue uptake at 3 h ([1]; Sm Int uptake): 0.27 ± 0.12 %ID/g
- tissue uptake at 24 h ([1]; Sm Int uptake): 0.1 ± 0.05 %ID/g
- tissue uptake at 0.5 h ([1]; Spleen uptake): 0.47 ± 0.13 %ID/g
- tissue uptake at 1 h ([1]; Spleen uptake): 0.36 ± 0.03 %ID/g
- tissue uptake at 3 h ([1]; Spleen uptake): 0.3 ± 0.07 %ID/g
- tissue uptake at 24 h ([1]; Spleen uptake): 0.1 ± 0.03 %ID/g
- tissue uptake at 0.5 h ([1]; Stomach uptake): 1.92 ± 0.26 %ID/g
- tissue uptake at 1 h ([1]; Stomach uptake): 1.2 ± 0.05 %ID/g
- tissue uptake at 3 h ([1]; Stomach uptake): 0.55 ± 0.16 %ID/g
- tissue uptake at 24 h ([1]; Stomach uptake): 0.13 ± 0.04 %ID/g
- tissue uptake at 0.5 h ([1]; Tumor uptake): 2.6 ± 0.53 %ID/g
- tissue uptake at 1 h ([1]; Tumor uptake): 2.96 ± 0.51 %ID/g
- tissue uptake at 3 h ([1]; Tumor uptake): 2.24 ± 0.27 %ID/g
- tissue uptake at 24 h ([1]; Tumor uptake): 0.91 ± 0.28 %ID/g
- tissue to tissue ratio at 0.5 h ([1]; Tumor/blood ratio): 4.38 ± 0.92
- tissue to tissue ratio at 1 h ([1]; Tumor/blood ratio): 8.35 ± 1.12
- tissue to tissue ratio at 3 h ([1]; Tumor/blood ratio): 13.2 ± 2.78
- tissue to tissue ratio at 24 h ([1]; Tumor/blood ratio): 15.2 ± 4.36
- tissue to tissue ratio at 0.5 h ([1]; Tumor/kidney ratio): 0.03 ± 0.01
- tissue to tissue ratio at 1 h ([1]; Tumor/kidney ratio): 0.04 ± 0.01
- tissue to tissue ratio at 3 h ([1]; Tumor/kidney ratio): 0.06 ± 0.01
- tissue to tissue ratio at 24 h ([1]; Tumor/kidney ratio): 0.12 ± 0.02
- tissue to tissue ratio at 0.5 h ([1]; Tumor/liver ratio): 0.38 ± 0.14
- tissue to tissue ratio at 1 h ([1]; Tumor/liver ratio): 0.58 ± 0.17
- tissue to tissue ratio at 3 h ([1]; Tumor/liver ratio): 0.82 ± 0.2
- tissue to tissue ratio at 24 h ([1]; Tumor/liver ratio): 0.83 ± 0.24
- uptake in other organs (lung, heart, stomach and intestines) [2]: kept at a low level
- cell affinity and internalization rate [3]: increased time dependently

Compound: NCCCCC(NC(=O)C1CCCN1)C(=O)NC(CS)C(=O)NCCCCC(NC(=O)CCC(NC(=O)c1ccc(NCC2=NC3C(=O)NC(N)=NC3N=C2)cc1)C(=O)O)C(=O)O (stereo not shown) [Example 1, PKCK-Fol-OH]
- IC50 [4]: 160 nM
